The subject of assay [1] is XBP-1^−/− B cells. The assay can be described thus: Ig production by retrovirally transduced XBP-1-/- primary B cells (ELISA). It is filed as cell-based, mouse. The note with it: LPS 10 μg/ml 72 h. The procedure: Assays to measure immunoglobulin or cytokine levels in culture supernatants were performed as described (e.g., Hodge et al., 1996 Immunity. 4:397-405 or Science. 1996 274:1903-5).
The XBP-1 cDNAs for the unspliced (XBP-1u/s) and the spliced (XBP-1s) forms were PCR-amplified from the total RNA of untreated and tunicamycin treated NIH3T3 cells, respectively, with a primer set (5′-[…]-3′ (SEQ ID NO: 7) and 5′-[…]-3′) (SEQ ID NO: 8). XBP-1u form was generated by a PCR-based mutagenesis from XBP-unspliced/s cDNA so that the two G residues at position 532 and 535 were changed to A without changing amino acid sequences in the XBP-1u open reading frame. Numbers are based on the sequences from gene bank database (NM_013842 [gi:13775155]). These XBP-1 cDNAs were inserted into the GFP-RV retroviral vector by using blunt end ligation (Sambrook et al., 1989). EFFECTENE transfection (Quiagen) was used to introduce the DNA into the Phoenix cell line as described by manufacturer (e.g., Reimold et al., 2001 Nature. 412:300-7 or Int Immunol. 2001 13:241-8). Viral supernatants were harvested after 48 hours and frozen at −80° C. for later use. B cells were purified from mouse spleens using CD43 depletion or positive selection with B220+ magnetic beads as described by the manufacturer (MidiMacs, Miltenyi Biotech). B cell purity was generally near 95% as confirmed by flow cytometry. The B cells (10^6 cells /ml) were then activated in culture with LPS 10 μg/ml and F (ab′)2 anti-IgM (5 μg/ml Southern Biotechnology Associates Inc.) for 24 hours. The 1 ml of activated B cells (10^6 cells/ml) were mixed with 4 μg of polybrene and 1 ml of virus-containing supernatant and spun at 1000 g for 45 minutes at 24° C. Cells were incubated for 24-36 h at 37° C. and then GFP+ cells were flow sorted and returned to culture with and without stimulation.
The effects of these three different forms of XBP-1 on Ig secretion were compared in wild type and XBP-1^−/− B cells. In vitro activated splenic B cells were transduced using retroviruses expressing bicistronic mRNA encoding XBP-1u/s, XBP-1s, XBP-1u or control GFP. In FIGS. 5(A) and (B) purified B cells from wt and XBP-1^−/− mice were activated in culture with LPS 10 μg/ml and F (ab′)2 anti-IgM (5 μg/ml) for 24 hours. Retroviral transduction with GFP alone (GFP-Rv), XBP-1u/s (XBP-1u/s GFP Rv), XBP-1s (XBP-1s GFP Rv) or XBP-1u (XBP-1u GFP Rv) of activated B cells was performed. Cells were incubated for 24-36 h at 37° C. and then GFP+ cells were flow sorted and then returned to culture with LPS stimulation (10 μg/ml) for 72 h. IgM panel(A) and IgG2b panel (B) production analyzed by ELISA from culture supernatants of stimulated B cells. Experiments were done at least three times and standard deviation is shown.

Assay [2] relates to UPR target genes. The assay can be described thus: Genes induced by XBP-1s in MEF-tet-off-XBP-1s cells (gene array, Northern blot). It is filed as cell-based. The note with it: doxycycline removed for three days. On the procedure:
XBP-1s expression was induced by culturing the cells for three days in doxycycline free media or by treating with Tm for the indicated time. […] Total RNA was also prepared to measure the expression level of BiP, CHOP, ERdj4, p58^ipk and ATF6α mRNA. (B) Additional XBP-1 dependent target genes identified in gene profiling experiments (Table 2) confirmed by Northern analysis in both XBP-1s MEF-tet-off and XBP-1^−/− MEFs. Ethidium bromide staining of the gels before blotting are shown at the bottom.
293T and MEF cells derived from wild type and XBP-1^−/− embryos were cultured in DMEM supplemented with 10% fetal calf serum (Hyclone Laboratories). MEF-tet-off cells (Clontech) were maintained in the same media with the addition of 100 μg/ml G418 and 1 μg/ml doxycycline. XBP-1s inducible cells were obtained by transfecting MEF-tet-off cells with the TREhyg-XBP-1s plasmid and then selecting in the presence of 400 μg/ml hygromycin B. Several clones were tested for doxycycline-dependent XBP-1s expression, and one was selected for further experiments. MEF-dn-XBP cells were generated by transfecting MEF-tet-off cells with the TREhyg-dn-XBP plasmid. […] ATF6α and β knockdown MEF cells were generated by cotransfecting wild type MEF cells with U6-iATF6α and β and cmv-puromycin or transducing cells with retroviruses containing each RNAi vector.
Total RNA was isolated from MEF cells with TRIZOL reagent (Invitrogen, Carlsbad, Calif.). cDNA synthesis, hybridization and laser scanning of the array were carried out at the Gene Array Technology Center (Brigham and Women's Hospital, Boston, Mass.) with MG-U74A GeneChips which had 6,000 functionally characterized sequences and 6,000 ESTs from the UniGene database (Affymetrix, Santa Clara, Calif.) as recommended by Affymetrix. Data analysis was performed using Affymetrix GeneChip 3.1 software under default parameter setting.
To examine whether XBP-1 itself is sufficient to induce these UPR target genes, the tet-off system was used to establish a cell line in which the spliced form of XBP-1, XBP-1s, is placed downstream of a tetracycline dependent promoter. XBP-1s was induced by removing doxycycline in the culture medium for three days. […] To identify genes that were induced by XBP-1s, total RNAs were prepared from MEF-tet-off-XBP-1s cells cultured in the presence or absence of doxycycline and gene array analysis performed (Table 1). […] In addition, ˜23% of the total pool of analyzed UPR target genes were induced by XBP-1s, although the fold induction tended to be lower than upon Tm treatment. These UPR genes included Herp, BiP, Aremt, AW124049 EST and interferon beta. […] The expression of BiP, CHOP, ERdj4 and p58^ipk was confirmed by Northern blot analysis (FIG. 17A).

B1: XBP-1s: vector encoding only the spliced form of murine XBP-1, a protein of 371 aa (protein)
chain: MVVVAAAPSAATAAPKVLLLSGQPASGGRALPLMVPGPRAAGSEASGTPQARKRQRLTHLSPEEKALRRKLKNRVAAQTARDRKKARMSELEQQVVDLEEENHKLQLENQLLREKTHGLVVENQELRTRLGMDTLDPDEVPEVEAKGSGVRLVAGSAESAAGAGPVVTSPEHLPMDSDTVASSDSESDILLGILDKLDPVMFFKCPSPESASLEELPEVYPEGPSSLPASLSLSVGTSSAKLEAINELIRFDHVYTKPLVLEIPSETESQTNVVVKIEEAPLSSSEEDHPEFIVSVKKEPLEDDFIPELGISNLLSSSHCLRPPSCLLDAHSDCGYEGSPSPFSDMSSPLGTDHSWEDTFANELFPQLISV
Take B1: the “secretion of IgM compared to control cells” value in assay [1] is on record as “approximately ten-fold”. Further, in assay [2], the ATF6α induction result is listed as “also induced by XBP-1s”; the BiP induction result was “only marginally induced”; the CHOP induction entry is “not significantly induced”; the “ERdj4 and p58ipk expression” value is “sufficient to induce ERdj4 and p58^ipk expression”. Moreover, the “share of analyzed UPR target genes induced” value in assay [2] is given as about 23%.

These data come from patent US20040170622A1, “Methods and compositions for modulating XBP-1 activity” (President and Fellows of Harvard College, priority 2002, published 2004).
